This is an account of results in the supplement of paper PMC11865577.

Assay in all cases: pull-down binding Z-score (relative to library population); higher = stronger binding
What all share (conditions): RNA library: Library-2

Data set [1] concerns TO-3-N3 (biotin conjugate). The gist of the method:
(§1)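 Biotin-conjugated small molecule (100 pmol) on streptavidin beads was incubated with 1 μg of heat-folded Cy5- or Cy3-end-labelled RNA library in phosphate/NaCl/KCl buffer at 25 °C for 60 min. Following three washes, RNA was eluted with hot SDS and hybridised at 55.5 °C for 20 h to a DNA barcode microarray. The binding value is a Z-score computed from the library mean and standard deviation, after subtraction of beads without compound and averaging of barcoded replicate probes with the highest and lowest excluded.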

Data set [2] deals with TO-3-N3-2 (biotin conjugate). The gist of the method: as §1
Another data set relates to TO-N3 (biotin conjugate). A digest of the protocol: as §1
Data set [3] has as its system TO-N3-2 (biotin conjugate). The gist of the method: as §1

Consider “UGAUAAAUUCA [SHAPE_invivo_SARS-CoV-2_Motif_325]”, for which the “pull-down binding Z-score” value is -0.376 in data set [1], -0.375 in data set [2], -0.712 in the data set with TO-N3 (biotin conjugate) and -1.19 in data set [3].
Consider “UAGGUGUUUUAAUGUCUAAUUUAGGCAUGCCUUCUUACUGUACUGGUUACAGAGAAGGCUAUUUGAACUCUACUAAUGUCACUAUUGCAACCUA”, for which the “pull-down binding Z-score” value in data set [1] was -0.221; in data set [2] it was 0.0583; in the data set on TO-N3 (biotin conjugate) it was -0.0965; in data set [3] it was -0.12.
Consider “AUUGUUGUCGCUUCCAAGAAAAGGACGAAGAUGACAAU [DMSMaPseq_invitro_SARS-CoV-2_Motif_245]”, for which the “pull-down binding Z-score” value is 0.287 in data set [1], -0.272 in data set [2], -0.00678 in the data set with TO-N3 (biotin conjugate) and -0.371 in data set [3].
With AGUUGUGAUCAACU, the “pull-down binding Z-score” value in data set [1] was -0.744; in data set [2] it was -0.728; with TO-N3 (biotin conjugate) it was -1.06; in data set [3] it was -1.24.
For “GGGAAGGCGAAAGACC [IAV_invivo_PA_3_Motif_21+IAV_invivo_PA_3_Motif_21]”, the “pull-down binding Z-score” value in data set [1] was 0.143; in data set [2] it was 0.289; in the data set on TO-N3 (biotin conjugate), 0.603; in data set [3], 1.12.
In the case of GCAGUGGCUAACUAACAUCUUUGGCACUGU, the “pull-down binding Z-score” value in data set [1] is -0.125; in data set [2], 0.0264; in the data set with TO-N3 (biotin conjugate) it was -0.244; in data set [3] it was -0.175.
Take “GGGCUAGAUUCCC [DMSMaPseq_invitro_SARS-CoV-2_Motif_228]”: the “pull-down binding Z-score” value in data set [1] is -0.623; in data set [2], -0.264; in the data set on TO-N3 (biotin conjugate) it was -0.867; in data set [3], -0.533.
The corresponding values for “GUGGUAGUUAUACUAAUGACAAAGCUUGCCCAUUGAUUGCUGC [DMSMaPseq_invitro_SARS-CoV-2_Motif_161]” are 0.409, 0.207, 0.498 and 0.208.
Consider “GGCUAUGGUUUCCAGAGCC [IAV_invivo_PB1_2_Motif_37+IAV_invivo_PB1_2_Motif_37]”, for which the “pull-down binding Z-score” value in data set [1] is 0.417; in data set [2], -0.179; with TO-N3 (biotin conjugate), 0.285; in data set [3], -0.356.
The corresponding values for GAUGCUGUUGUGUGUUUCAAUAGCACUUAUGCAUC are -0.907, -0.542, -0.937 and -0.931.
Take “UGGGGACCAGGAACUAAUCAGACAAGGAACUGAUUACAAACAUUGGCCGCAAAUUGCACAAUUUGCCCCCA”: the “pull-down binding Z-score” value was -0.075 in data set [1], 0.0998 in data set [2], 0.312 in the data set on TO-N3 (biotin conjugate) and 0.83 in data set [3].
GAGACAUUUAAACUGUCUU: the “pull-down binding Z-score” value is -0.469 in data set [1], -0.286 in data set [2], -0.91 in the data set on TO-N3 (biotin conjugate) and -1.06 in data set [3].
As for “CAAUGUGUGAUAUCAGACAACUACUAUUUGUAGUUGAAGUUGUUGAUAAGUACUUUG [DMSMaPseq_invitro_SARS-CoV-2_Motif_268]”, the “pull-down binding Z-score” value is -0.462 in data set [1], -0.487 in data set [2], 0.105 in the data set with TO-N3 (biotin conjugate) and -0.156 in data set [3].
With “UCAAAAAGAAAUUGA [SHAPE_invivo_SARS-CoV-2_Motif_472]”, the “pull-down binding Z-score” value in data set [1] is -0.145; in data set [2] it was 0.153; in the data set with TO-N3 (biotin conjugate), -0.459; in data set [3], -0.626.
Regarding “GGCAGACGUGGUCCAGAACAAACCCAAGGAAAUUUUGGGGACCAGGAACUAAUCAGACAAGGAACUGAUUACAAACAUUGGCC”, the “pull-down binding Z-score” value turned out to be 0.608 in data set [1], 0.536 in data set [2], 0.753 with TO-N3 (biotin conjugate) and 0.614 in data set [3].
With “GUAAUGAUCCAUUUUUGGGUGUUUAUUAC [DMSMaPseq_invitro_SARS-CoV-2_Motif_387]”, the “pull-down binding Z-score” value was -0.1 in data set [1], -0.129 in data set [2], -0.308 with TO-N3 (biotin conjugate) and -0.998 in data set [3].
With “GUUCGGAUGCUCGAACUGCACCUCAUGGUCAUGUUAUGGUUGAGCUGGUAGCAGAACUCGAAGGCAUUCAGUAC [DMSMaPseq_invitro_SARS-CoV-2_Motif_11]”, the “pull-down binding Z-score” value in data set [1] is -0.665; in data set [2], -0.307; in the data set on TO-N3 (biotin conjugate), 0.002; in data set [3], 1.96.
With “GUAGACAAUUCUAGUCUUAC [SHAPE_invitro_SARS-CoV-2_Motif_131]”, the “pull-down binding Z-score” value is 0.702 in data set [1], -0.243 in data set [2], 0.441 in the data set on TO-N3 (biotin conjugate) and -0.316 in data set [3].
As to “CCCAAUCAUGAAGGG [IAV_invivo_PB1_2_Motif_24+IAV_invivo_PB1_2_Motif_24]”, the “pull-down binding Z-score” value was -0.131 in data set [1], -0.407 in data set [2], -0.488 with TO-N3 (biotin conjugate) and -0.373 in data set [3].
In the case of “UGCCUUCAAACUCAACAUUAAAUUGUUGGGUGUUGGUGGCA”, the “pull-down binding Z-score” value in data set [1] was -0.701; in data set [2], -0.352; in the data set on TO-N3 (biotin conjugate), -0.909; in data set [3], -1.07.
In the case of AAGGUAAGAGGGAUACUUACCUG [U1snRNP5ss-26], the “pull-down binding Z-score” value is -0.614 in data set [1], -0.286 in data set [2], -0.673 with TO-N3 (biotin conjugate) and -0.262 in data set [3].
Regarding “CCCAGUGCGGGG [IAV_invivo_NP_5_Motif_5+IAV_invivo_NP_5_Motif_5]”, the “pull-down binding Z-score” value in data set [1] is -0.794; in data set [2], -0.664; with TO-N3 (biotin conjugate) it was -1.12; in data set [3] it was -0.984.
With “CUGUUCCACCAUUGAAGAGCUCAG [IAV_invivo_PB1_2_Motif_38+IAV_invivo_PB1_2_Motif_38]”, the “pull-down binding Z-score” value in data set [1] is -0.372; in data set [2], -0.178; in the data set with TO-N3 (biotin conjugate), 0.134; in data set [3], 0.457.
In the same order, the values of “GGAGAAAAUUCC [IAV_invivo_PA_3_Motif_17+IAV_invivo_PA_3_Motif_17]” are -0.517, -0.333, -0.797 and -0.726.
As for UGGGUAGAAUUCGAUCUGUCUAUCCA, the “pull-down binding Z-score” value in data set [1] was -0.51; in data set [2], -0.21; in the data set with TO-N3 (biotin conjugate), -0.686; in data set [3] it was -0.327.
